One molecule from article doi:10.1101/2022.11.28.518222 can be followed below.

The target of the series is IRF6 (human, UniProt O14896 1-467). Description: EMSA. In general terms: Mobility shift assays separate free from complexed probe on a gel.

B1: IRF6 motif trimer EMSA probe (dsDNA)
DNA 1: TGGTTTCGGTTGACTTGGTTTCGGTTGACTTGGTTTCGGTTGA
DNA 2: TCAACCGAAACCAAGTCAACCGAAACCAAGTCAACCGAAACCA
For B1, the binding result is reported as “binds”.
